B1: Mothers against decapentaplegic homolog 4 (Homo sapiens), Q13485 (parent)
chain: MDNMSITNTPTSNDACLSIVHSLMCHRQGGESETFAKRAIESLVKKLKEKKDELDSLITAITTNGAHPSKCVTIQRTLDGRLQVAGRKGFPHVIYARLWRWPDLHKNELKHVKYCQYAFDLKCDSVCVNPYHYERVVSPGIDLSGLTLQSNAPSSMMVKDEYVHDFEGQPSLSTEGHSIQTIQHPPSNRASTETYSTPALLAPSESNATSTANFPNIPVASTSQPASILGGSHSEGLLQIASGPQPGQQQNGFTGQPATYHHNSTTTWTGSRTAPYTPNLPHHQNGHLQHHPPMPPHPGHYWPVHNELAFQPPISNHPAPEYWCSIAYFEMDVQVGETFKVPSSCPIVTVDGYVDPSGGDRFCLGQLSNVHRTEAIERARLHIGKGVQLECKGEGDVWVRCLSDHAVFVQSYYLDREAGRAPGDAVHKIYPSAYIKVFDLRQCHRQMQQQAATAQAAAAAQAAAVAGNIPGPGSVGGIAPAISLSAAAGIGVDDLRRLCILRMSFVKGWGPDYPRQSIKETPCWIEIHLHRALQLLDEVLHTMPIADPQPLD
partner: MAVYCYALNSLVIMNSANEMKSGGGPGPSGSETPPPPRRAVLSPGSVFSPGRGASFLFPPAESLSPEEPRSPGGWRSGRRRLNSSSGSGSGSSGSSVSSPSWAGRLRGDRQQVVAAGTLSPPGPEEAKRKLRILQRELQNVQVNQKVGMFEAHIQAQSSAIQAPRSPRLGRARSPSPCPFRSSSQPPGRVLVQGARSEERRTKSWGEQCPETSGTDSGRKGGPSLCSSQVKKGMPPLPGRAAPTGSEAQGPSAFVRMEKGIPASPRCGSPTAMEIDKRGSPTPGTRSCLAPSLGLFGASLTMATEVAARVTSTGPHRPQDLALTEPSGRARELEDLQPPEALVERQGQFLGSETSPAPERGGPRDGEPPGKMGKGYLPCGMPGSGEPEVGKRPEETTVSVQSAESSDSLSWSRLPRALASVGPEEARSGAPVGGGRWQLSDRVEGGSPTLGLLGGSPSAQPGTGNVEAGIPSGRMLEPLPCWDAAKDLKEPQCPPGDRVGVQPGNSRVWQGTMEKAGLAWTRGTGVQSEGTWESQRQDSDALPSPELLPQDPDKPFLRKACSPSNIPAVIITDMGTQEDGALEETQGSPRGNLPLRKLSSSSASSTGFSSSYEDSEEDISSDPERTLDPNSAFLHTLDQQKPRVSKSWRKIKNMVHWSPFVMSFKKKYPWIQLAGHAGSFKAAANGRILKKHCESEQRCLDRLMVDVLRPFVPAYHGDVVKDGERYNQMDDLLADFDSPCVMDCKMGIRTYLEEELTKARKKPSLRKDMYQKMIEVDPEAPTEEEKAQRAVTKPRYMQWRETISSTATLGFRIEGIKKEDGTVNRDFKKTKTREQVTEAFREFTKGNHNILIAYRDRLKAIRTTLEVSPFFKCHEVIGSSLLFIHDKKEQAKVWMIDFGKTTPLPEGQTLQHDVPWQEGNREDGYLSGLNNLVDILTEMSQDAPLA
B2: Mothers against decapentaplegic homolog 4 (Homo sapiens), Q13485 (parent)
chain: B1 chain
partner: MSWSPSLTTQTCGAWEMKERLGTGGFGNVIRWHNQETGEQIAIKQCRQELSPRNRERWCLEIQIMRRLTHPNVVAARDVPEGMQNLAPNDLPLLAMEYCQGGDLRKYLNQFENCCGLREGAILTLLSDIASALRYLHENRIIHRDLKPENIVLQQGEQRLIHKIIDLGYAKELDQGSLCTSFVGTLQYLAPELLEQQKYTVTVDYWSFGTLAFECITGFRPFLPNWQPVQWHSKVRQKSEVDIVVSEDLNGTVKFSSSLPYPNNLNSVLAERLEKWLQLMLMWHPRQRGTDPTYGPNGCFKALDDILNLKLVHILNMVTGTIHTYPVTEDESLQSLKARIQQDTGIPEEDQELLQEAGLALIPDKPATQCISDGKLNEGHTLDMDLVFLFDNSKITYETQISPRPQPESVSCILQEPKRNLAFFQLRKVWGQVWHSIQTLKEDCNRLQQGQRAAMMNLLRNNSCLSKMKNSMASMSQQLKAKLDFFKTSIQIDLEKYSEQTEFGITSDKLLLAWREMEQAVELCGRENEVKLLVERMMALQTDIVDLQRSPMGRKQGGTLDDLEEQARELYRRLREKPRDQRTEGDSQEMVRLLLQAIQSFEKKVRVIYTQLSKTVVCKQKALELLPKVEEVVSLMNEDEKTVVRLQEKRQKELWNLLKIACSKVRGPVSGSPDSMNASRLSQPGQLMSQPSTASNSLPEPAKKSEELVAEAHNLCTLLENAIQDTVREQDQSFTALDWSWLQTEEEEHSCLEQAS
B3: Mothers against decapentaplegic homolog 4 (Homo sapiens), Q13485 (parent)
chain: B1 chain
partner: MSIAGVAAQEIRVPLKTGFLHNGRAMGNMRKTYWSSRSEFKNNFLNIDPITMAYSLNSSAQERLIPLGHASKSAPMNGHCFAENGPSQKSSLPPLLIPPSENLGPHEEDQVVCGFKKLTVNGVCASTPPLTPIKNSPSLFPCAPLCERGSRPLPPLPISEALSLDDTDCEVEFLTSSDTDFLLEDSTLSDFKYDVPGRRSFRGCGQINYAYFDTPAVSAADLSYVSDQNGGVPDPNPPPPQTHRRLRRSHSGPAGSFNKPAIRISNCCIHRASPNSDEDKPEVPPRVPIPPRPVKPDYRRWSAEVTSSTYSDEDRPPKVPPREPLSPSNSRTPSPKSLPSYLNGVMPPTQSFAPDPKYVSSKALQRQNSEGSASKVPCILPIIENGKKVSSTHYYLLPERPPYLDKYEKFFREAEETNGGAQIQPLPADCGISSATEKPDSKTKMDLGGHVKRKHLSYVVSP
B4: Mothers against decapentaplegic homolog 4 (Homo sapiens), Q13485 (parent)
chain: B1 chain
partner: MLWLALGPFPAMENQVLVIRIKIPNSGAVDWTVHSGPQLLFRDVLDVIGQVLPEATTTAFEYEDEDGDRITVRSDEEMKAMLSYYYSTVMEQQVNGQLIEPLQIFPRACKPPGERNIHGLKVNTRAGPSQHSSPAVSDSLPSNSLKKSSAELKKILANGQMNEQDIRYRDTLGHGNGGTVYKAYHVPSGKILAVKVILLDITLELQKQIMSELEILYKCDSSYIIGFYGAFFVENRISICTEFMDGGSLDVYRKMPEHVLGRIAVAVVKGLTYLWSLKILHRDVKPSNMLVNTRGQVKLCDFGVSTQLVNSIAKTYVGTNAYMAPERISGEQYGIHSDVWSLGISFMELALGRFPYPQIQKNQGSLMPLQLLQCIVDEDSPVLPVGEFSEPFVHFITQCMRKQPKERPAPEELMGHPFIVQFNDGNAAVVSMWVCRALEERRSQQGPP

Variants of: B1
Details: with ip3kb_human ITPKB
For R361H, the “effect of a mutation on the interaction” value was “with no effect”.

Variants of: B2
Details: with ikkb_human IKBKB
With G386D the “effect of a mutation on the interaction” value was “with no effect”.

Variants of: B2
Details: with ikkb_human IKBKB
Remark: another data set of the same source
For R361H, the “effect of a mutation on the interaction” value was “with no effect”.

Variants of: B2
Details: with ikkb_human IKBKB
Remark: another data set of the same source
With R361C the “effect of a mutation on the interaction” value was “with no effect”.

Variants of: B2
Details: with ikkb_human IKBKB
Remark: another data set of the same source
With D351H the “effect of a mutation on the interaction” value was “with no effect”.

Variants of: B3
Details: with errfi_human ERRFI1, Q9UJM3
For R361H, the “effect of a mutation on the interaction” value was “with no effect”.

Variants of: B3
Details: with errfi_human ERRFI1, Q9UJM3
Remark: another data set of the same source
In the case of R361C, the “effect of a mutation on the interaction” value is reported as “with no effect”.

Variants of: B3
Details: with errfi_human ERRFI1, Q9UJM3
Remark: another data set of the same source
For D351H, the “effect of a mutation on the interaction” value was “with no effect”.

Variants of: B3
Details: with errfi_human ERRFI1, Q9UJM3
Remark: another data set of the same source
For G386D, the “effect of a mutation on the interaction” value was “with no effect”.

Variants of: B4
Details: with mp2k5_human MAP2K5, Q13163
With D351H the “effect of a mutation on the interaction” value was “with no effect”.

Variants of: B4
Details: with mp2k5_human MAP2K5, Q13163
Remark: another data set of the same source
With R361H the “effect of a mutation on the interaction” value was “with no effect”.

Variants of: B4
Details: with mp2k5_human MAP2K5, Q13163
Remark: another data set of the same source
In the case of R361C, the “effect of a mutation on the interaction” value is reported as “with no effect”.

Reference: IntAct's records for PubMed 35512704
